Experimental data: CN116514981A (JIANGSU QUANXIN BIOMEDICAL CO LTD, dated 2023)

Key:
[1] = biological target: T1, 人IL-23 (Bio IL-23) (human, UniProt Q9NPF7 20-189; P29460 23-328, biotin-labelled (Bio IL-23); sites not stated); test: ELISA: Bio IL-23 at 1 μg/ml captured on Neutravidin, antibody in serial dilution
T1 construct: also called hIL-23
T1 sequence (looked up) 1: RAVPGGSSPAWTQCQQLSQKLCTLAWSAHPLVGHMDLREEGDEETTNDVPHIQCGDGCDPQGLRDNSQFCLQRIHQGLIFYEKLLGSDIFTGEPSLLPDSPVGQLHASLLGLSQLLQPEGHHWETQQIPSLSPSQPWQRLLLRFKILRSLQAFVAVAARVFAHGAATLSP
T1 sequence (looked up) 2: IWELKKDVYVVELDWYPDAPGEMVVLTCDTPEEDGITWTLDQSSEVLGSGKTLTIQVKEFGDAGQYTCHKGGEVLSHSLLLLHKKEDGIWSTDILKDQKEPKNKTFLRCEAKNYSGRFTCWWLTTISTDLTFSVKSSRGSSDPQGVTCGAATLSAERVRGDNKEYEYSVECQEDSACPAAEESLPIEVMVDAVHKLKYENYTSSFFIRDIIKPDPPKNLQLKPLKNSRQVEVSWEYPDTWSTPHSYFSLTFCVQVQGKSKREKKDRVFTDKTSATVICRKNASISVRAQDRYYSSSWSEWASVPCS

[2] = biological target: T2, 人IL-12 (Bio IL-12) (human, UniProt P29459 23-219; P29460 23-328, biotin-labelled (Bio IL-12); sites not stated); test: ELISA: Bio IL-12 at 1 μg/ml captured on Neutravidin, antibody in serial dilution
T2 construct: the p35 subunit is supplied from general knowledge
T2 sequence (looked up) 1: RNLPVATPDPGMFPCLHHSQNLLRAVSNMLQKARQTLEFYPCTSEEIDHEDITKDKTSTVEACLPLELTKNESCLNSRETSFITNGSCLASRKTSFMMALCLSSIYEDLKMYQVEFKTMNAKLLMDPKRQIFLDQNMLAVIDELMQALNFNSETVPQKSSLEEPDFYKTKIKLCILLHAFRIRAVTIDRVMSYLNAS
T2 sequence (looked up) 2: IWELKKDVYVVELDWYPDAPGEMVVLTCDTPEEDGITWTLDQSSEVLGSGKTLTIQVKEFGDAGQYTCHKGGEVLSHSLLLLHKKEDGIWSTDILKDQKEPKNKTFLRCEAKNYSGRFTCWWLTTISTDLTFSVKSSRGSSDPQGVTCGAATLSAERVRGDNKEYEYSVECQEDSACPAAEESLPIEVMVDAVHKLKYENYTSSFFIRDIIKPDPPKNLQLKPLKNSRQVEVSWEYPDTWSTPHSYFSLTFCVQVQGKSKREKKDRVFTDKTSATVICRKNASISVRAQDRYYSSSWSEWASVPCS

binding result [1]: binds
binding result [2]: no binding
B1: 抗人IL-23P19单克隆抗体(第一抗体) (antibody, V domains shown)
VH: QEQLEESGGGLVKPGGTLTLTCKASGFDFTTYNYMCWVRQAPGKGLEWIACIYTTKTNTWYASWAKGRFTISKTSSTTVTLQMTSLTAADTATYFCARGGWDNLSLWGPGTLVTVSS
VL: AALTQTPASVSAAVGGTVTIKCQSSQSVYSNNYLAWYQQKPGQPPKVLIYAASTLASGVPSRFSGSGSGTQFTLTISGVQCDDAATYYCLGGYDDDAVFGGGTEVVVKG
notes: also called 抗人IL-23第一抗体; 包被抗体
